One molecule from patent US9378557B2, “Microfluidic device for assessing object/test material interactions” (Dublin City University, priority 2008, dated 2016) can be followed below.

This test concerns platelets. The test can be described thus: Shear-activated platelet translocation on von Willebrand Factor in the microfluidic device (blood perfusion assay, platelet tracking software). Conditions: whole blood treated with ReoPro 20 μg/ml for 20 minutes; vWF-coated test area; arterial shear rate 1500 s-1; compared to normal untreated platelets (FIG. 13). In kind it is cell-based. An excerpt:
The microfluidic device was used to measure the shear-activated response of platelets in the presence of von Willebrand Factor (vWF). In particular, the effect of platelet specific GPIIb-IIIa antagonist (abciximab, ReoPro) on platelet function was examined. Abciximab (trade name ReoPro, distributed by Eli Lilly) is a platelet aggregation inhibitor used mainly during and after coronary artery procedures to prevent platelets from sticking together, by platelet GPIIb-IIIa-mediated aggregation, and subsequent thrombus formation.
Blood Draw: Blood was obtained from volunteers by venopuncture using a 19-g needle attached to a polypropylene syringe containing anticoagulant solution. […]
Matrix deposition on microfluidic device: The components of the flow cells were assembled using a jig to ensure patterned psa layers are aligned. […] Using silastic laboratory tubing, von Willebrand Factor solution (˜100 ug/ml protein solution in Phosphate Buffered Saline solution (PBS) was injected to fill the flow cell. The platform was then left to sit for 2 hours to immobilise the vWF on the glass base. (The flow cells were blocked with 1% BSA solution (in PBS) for 1 hour at room temperature). Deposition of von Willebrand Factor was by coating through adsorption. The platforms were rinsed with PBS solution and were then ready for perfusion assays. […]

B1: abciximab (antibody, chains of the INN, looked up, V domains shown)
VH: EVQLQQSGTVLARPGASVKMSCEASGYTFTNYWMHWVKQRPGQGLEWIGAIYPGNSDTSYIQKFKGKAKLTAVTSTTSVYMELSSLTNEDSAVYYCTLYDGYYVFAYWGQGTLVTVSA
VL: EIVLTQSPVTLSVTPGDSVSLSCRASRDISNNLHWFQQTSHESPRLLIKYASQSMSGIPSRFSGSGSGTDFTLSINSVETEDFGMYFCQQTNSWPYTFGGGTKLEIK
modifications: Fab
notes: platelet specific GPIIb-IIIa antagonist
As to B1, the average velocity entry was “increased” and the escape percentage result is listed as “increased”.
